In the experiment the target is T1, GST-tagged first WD40 domain of Elp1, Q06706.
T1 chain: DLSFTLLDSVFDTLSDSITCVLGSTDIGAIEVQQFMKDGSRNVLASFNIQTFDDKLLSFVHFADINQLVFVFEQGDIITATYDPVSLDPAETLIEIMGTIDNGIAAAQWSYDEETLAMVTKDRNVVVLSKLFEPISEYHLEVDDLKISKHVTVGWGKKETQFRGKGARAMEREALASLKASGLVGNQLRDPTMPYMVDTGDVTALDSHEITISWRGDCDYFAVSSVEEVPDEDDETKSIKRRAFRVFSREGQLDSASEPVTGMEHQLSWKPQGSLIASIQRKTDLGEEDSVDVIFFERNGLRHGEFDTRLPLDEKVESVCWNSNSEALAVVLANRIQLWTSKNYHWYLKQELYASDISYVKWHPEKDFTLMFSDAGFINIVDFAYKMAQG
The experiment can be described thus: GST pull-down, quantified from Coomassie SDS-PAGE. The conditions noted are these: chain shown with the change;; parent: est. 1.0; read off a plot.

Changes are numbered by the printed parent chain. Numbers in names are those of the source.

B1: recombinant Kti12 (wild type), His-tagged, P34253 K225A; K228A; K235A; R281A; K283A; R284A; K291A (protein)
chain: MPLVLFTGYPCSGKTTLAKHLVQLLQSKIDATPSLSKYSITYHSDESLGIKHSDYITSQDERKLRSEIISAVKRDLSKNKIVIVDSLNYIKGFRYQLHCEVKNLSTTFCVIQTLCPPETIFEWNKTSNPNPWEPELLNQLIQRYEEPNSSNRWDSPLFAILTPQDNITDYIDDICKVVFQTSKSAKNSGHNDPLSKGLQKPNSATVLKPASQSNFIQVLDIETSAIIATIMNHIASLTSIGGVSNGTRVIVSEGITDINDDGCFFVDLPIGNVVTLAQLQALAAQFINFNALRDIDQDRIGPLFADYLNKNLN
In the case of B1, the ratio to parent turned out to be 0.11.

B2: recombinant Kti12 (wild type), His-tagged, P34253 K225A; K228A; K235A (protein)
chain: B1 chain with A281R, A283K, A284R, A291K
As to B2, the ratio to parent is 0.67.
